Results on eight molecules are retold here after US20220017591A1 (AstraZeneca / MedImmune, published 2022).

The chains are these.
T1: human RXFP1 (human, UniProt Q9HBX9 1-757)
T1 sequence (looked up): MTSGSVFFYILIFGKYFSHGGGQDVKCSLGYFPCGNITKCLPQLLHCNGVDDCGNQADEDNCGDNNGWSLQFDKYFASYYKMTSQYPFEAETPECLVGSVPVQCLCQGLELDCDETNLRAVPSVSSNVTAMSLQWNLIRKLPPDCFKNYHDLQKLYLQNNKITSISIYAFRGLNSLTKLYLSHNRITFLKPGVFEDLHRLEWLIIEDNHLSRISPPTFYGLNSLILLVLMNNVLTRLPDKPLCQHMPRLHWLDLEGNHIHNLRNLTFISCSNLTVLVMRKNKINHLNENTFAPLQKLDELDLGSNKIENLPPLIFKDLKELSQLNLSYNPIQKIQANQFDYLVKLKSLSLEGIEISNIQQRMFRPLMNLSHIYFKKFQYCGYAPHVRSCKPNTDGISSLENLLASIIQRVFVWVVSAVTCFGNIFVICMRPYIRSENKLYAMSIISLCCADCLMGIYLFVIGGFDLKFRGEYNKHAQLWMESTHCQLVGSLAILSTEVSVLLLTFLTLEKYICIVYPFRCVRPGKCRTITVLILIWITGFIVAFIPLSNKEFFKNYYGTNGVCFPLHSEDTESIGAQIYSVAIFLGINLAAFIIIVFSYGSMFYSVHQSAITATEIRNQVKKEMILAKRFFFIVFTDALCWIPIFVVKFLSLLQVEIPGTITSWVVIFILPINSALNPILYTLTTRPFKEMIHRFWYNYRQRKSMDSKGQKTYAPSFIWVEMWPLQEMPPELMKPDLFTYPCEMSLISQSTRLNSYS

T2: mouse RXFP1 (mouse, UniProt Q6R6I7 1-758)
T2 sequence (looked up): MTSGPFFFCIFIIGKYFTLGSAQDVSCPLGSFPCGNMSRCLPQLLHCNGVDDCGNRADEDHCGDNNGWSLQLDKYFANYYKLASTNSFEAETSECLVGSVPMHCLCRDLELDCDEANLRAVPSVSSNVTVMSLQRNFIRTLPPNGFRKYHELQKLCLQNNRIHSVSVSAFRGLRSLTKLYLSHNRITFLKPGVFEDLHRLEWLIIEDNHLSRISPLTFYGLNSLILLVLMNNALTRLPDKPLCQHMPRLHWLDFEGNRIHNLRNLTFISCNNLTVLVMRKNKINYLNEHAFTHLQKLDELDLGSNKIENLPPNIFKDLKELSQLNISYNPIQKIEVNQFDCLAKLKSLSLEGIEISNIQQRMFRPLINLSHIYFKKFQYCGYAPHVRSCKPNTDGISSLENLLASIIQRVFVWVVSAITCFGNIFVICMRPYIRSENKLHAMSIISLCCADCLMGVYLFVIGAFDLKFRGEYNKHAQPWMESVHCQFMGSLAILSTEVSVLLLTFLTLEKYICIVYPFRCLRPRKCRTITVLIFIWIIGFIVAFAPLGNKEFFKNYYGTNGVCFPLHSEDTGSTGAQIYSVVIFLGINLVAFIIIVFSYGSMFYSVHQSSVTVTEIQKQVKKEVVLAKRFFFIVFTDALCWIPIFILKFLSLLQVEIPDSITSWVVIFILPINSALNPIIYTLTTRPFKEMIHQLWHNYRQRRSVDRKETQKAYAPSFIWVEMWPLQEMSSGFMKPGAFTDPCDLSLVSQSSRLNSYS

B1: RELAX0013 (recombinant human Relaxin-2) (ligand)
chain 1: DSWMEEVIKLCGRELVRAQIAICGMSTWS
chain 2: QLYSALANKCCHVGCTKRSLARFC
B2: RELAX0023 (Fc fusion)
chain 1: DKTHTCPPCPAPEFEGGPSVFLFPPKPKDTLMISRTPEVTCVVVDVSHEDPEVKFNWYVDGVEVHNAKTKPREEQYNSTYRVVSVLTVLHQDWLNGKEYKCKVSNKALPASIEKTISKAKGQPREPQVYTLPPCREEMTKNQVSLWCLVKGFYPSDIAVEWESNGQPENNYKTTPPVLDSDGSFFLYSKLTVDKSRWQQGNVFSCSVMHEALHNHYTQKSLSLSPGGGGGSGGGGSGGGGSGGGGGSQLYSALANKCCHVGCTKRSLARFC
chain 2: DKTHTCPPCPAPEFEGGPSVFLFPPKPKDTLMISRTPEVTCVVVDVSHEDPEVKFNWYVDGVEVHNAKTKPREEQYNSTYRVVSVLTVLHQDWLNGKEYKCKVSNKALPASIEKTISKAKGQPREPQVCTLPPSREEMTKNQVSLSCAVKGFYPSDIAVEWESNGQPENNYKTTPPVLDSDGSFFLVSKLTVDKSRWQQGNVFSCSVMHEALHNHYTQKSLSLSPGGGGGSGGGGSGGGGSGGGGGSSWMEEVIKLCGRELVRAQIAICGMSTWS
B3: RELAX0024 (Fc fusion)
chain 1: B2 chain 1 with Y129C, C134S, W146S, L148A, Y187V
chain 2: B2 chain 2 with C129Y, S134C, S146W, A148L, V187Y
B4: RELAX0091 (Fc fusion)
chain 1: QLYSALANKCCHVGCTKRSLARFCAAAGGGGSGGGGSGGGGSGGGGSACPPCPAPEFEGGPSVFLFPPKPKDTLMISRTPEVTCVVVDVSHEDPEVKFNWYVDGVEVHNAKTKPREEQYNSTYRVVSVLTVLHQDWLNGKEYKCKVSNKALPASIEKTISKAKGQPREPQVYTLPPCREEMTKNQVSLWCLVKGFYPSDIAVEWESNGQPENNYKTTPPVLDSDGSFFLYSKLTVDKSRWQQGNVFSCSVMHEALHNHYTQKSLSLSPG
chain 2: SWMEEVIKLCGRELVRAQIAICGMSTWSAAAGGGGSGGGGSGGGGSGGGGSACPPCPAPEFEGGPSVFLFPPKPKDTLMISRTPEVTCVVVDVSHEDPEVKFNWYVDGVEVHNAKTKPREEQYNSTYRVVSVLTVLHQDWLNGKEYKCKVSNKALPASIEKTISKAKGQPREPQVCTLPPSREEMTKNQVSLSCAVKGFYPSDIAVEWESNGQPENNYKTTPPVLDSDGSFFLVSKLTVDKSRWQQGNVFSCSVMHEALHNHYTQKSLSLSPG
B5: RELAX0019 (Fc fusion)
chain 1: GGAGGACPPCPAPEFEGGPSVFLFPPKPKDTLMISRTPEVTCVVVDVSHEDPEVKFNWYVDGVEVHNAKTKPREEQYNSTYRVVSVLTVLHQDWLNGKEYKCKVSNKALPASIEKTISKAKGQPREPQVYTLPPCREEMTKNQVSLWCLVKGFYPSDIAVEWESNGQPENNYKTTPPVLDSDGSFFLYSKLTVDKSRWQQGNVFSCSVMHEALHNHYTQKSLSLSPGGGGGSGGGGSGGGGSGGGGGSQLYSALANKCCHVGCTKRSLARFC
chain 2: GGAGGACPPCPAPEFEGGPSVFLFPPKPKDTLMISRTPEVTCVVVDVSHEDPEVKFNWYVDGVEVHNAKTKPREEQYNSTYRVVSVLTVLHQDWLNGKEYKCKVSNKALPASIEKTISKAKGQPREPQVCTLPPSREEMTKNQVSLSCAVKGFYPSDIAVEWESNGQPENNYKTTPPVLDSDGSFFLVSKLTVDKSRWQQGNVFSCSVMHEALHNHYTQKSLSLSPGGGGGSGGGGSGGGGSGGGGGSSWMEEVIKLCGRELVRAQIAICGMSTWS
B6: RELAX0022 (Fc fusion)
chain 1: B5 chain 1 with C135S, W147S, L149A, Y188V
chain 2: B5 chain 2 with C130Y, S147W, A149L, V188Y
B7: RELAX0020 (Fc fusion)
chain 1: B5 chain 2 with C130Y, S135C, S147W, A149L, V188Y
chain 2: B5 chain 1 with Y130C, C135S, W147S, L149A, Y188V
B8: RELAX0014 (recombinant murine Relaxin-1) (ligand)
chain 1: MRVSEEWMDGFIRMCGREYARELIKICGASVGR
chain 2: ESGGLMSQQCCHVGCSRRSIAKLYC

Where a chain is given by its changes, count along the chain named.

T3 sequence (Q8WXD0 whole entry): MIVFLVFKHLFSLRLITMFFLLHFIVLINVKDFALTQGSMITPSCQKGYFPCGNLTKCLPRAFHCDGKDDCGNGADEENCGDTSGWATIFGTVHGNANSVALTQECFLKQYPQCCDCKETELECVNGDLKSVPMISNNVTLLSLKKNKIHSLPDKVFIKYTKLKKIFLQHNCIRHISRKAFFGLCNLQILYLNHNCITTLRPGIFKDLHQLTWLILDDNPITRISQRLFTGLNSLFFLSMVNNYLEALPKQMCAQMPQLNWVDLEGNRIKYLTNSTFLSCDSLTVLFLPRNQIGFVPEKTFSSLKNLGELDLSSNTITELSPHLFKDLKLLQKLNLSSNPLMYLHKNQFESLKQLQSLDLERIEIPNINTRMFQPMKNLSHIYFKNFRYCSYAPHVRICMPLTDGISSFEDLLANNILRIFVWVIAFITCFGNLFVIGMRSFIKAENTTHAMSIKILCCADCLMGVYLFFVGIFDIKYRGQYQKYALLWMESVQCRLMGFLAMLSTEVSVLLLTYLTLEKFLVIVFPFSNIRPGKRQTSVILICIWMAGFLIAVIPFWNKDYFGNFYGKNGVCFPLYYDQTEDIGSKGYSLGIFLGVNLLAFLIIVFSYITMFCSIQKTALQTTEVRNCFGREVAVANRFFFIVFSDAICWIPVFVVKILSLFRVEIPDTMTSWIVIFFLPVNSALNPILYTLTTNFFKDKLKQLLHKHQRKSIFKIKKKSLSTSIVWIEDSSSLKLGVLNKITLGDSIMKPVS

The first experiment has as its target T1, human RXFP1. Briefly: cell-based or functional assay.
For the molecule B1, the “EC50 hRXFP1 (M), cAMP assay” value is 1.15e-12 M.

As to B2, the “EC50 hRXFP1 (M), cAMP assay” value turned out to be 3.77e-11 M.

Turning to B3, the “EC50 hRXFP1 (M), cAMP assay” value was 4.6e-11 M.

Consider B4, for which the “EC50 hRXFP1 (M), cAMP assay” value is 5.88e-11 M.

With B5, the “EC50 hRXFP1 (M), cAMP assay” value was 3.57e-11 M.

Consider B6, for which the “EC50 hRXFP1 (M), cAMP assay” value came out at 4.74e-11 M.

For the molecule B7, the “EC50 hRXFP1 (M), cAMP assay” value was 4.41e-11 M.

B8: the “EC50 hRXFP1 (M), cAMP assay” value was 4.47e-12 M.

Another experiment concerns the target T2, mouse RXFP1. Briefly: cell-based or functional assay.
For the molecule B1, the “EC50 mRXFP1 (M), cAMP assay” value came to 7.54e-13 M.

Take B2: the “EC50 mRXFP1 (M), cAMP assay” value was 3.27e-11 M.

Turning to B3, the “EC50 mRXFP1 (M), cAMP assay” value turned out to be 1.56e-11 M.

Regarding B4, the “EC50 mRXFP1 (M), cAMP assay” value was 2.88e-11 M.

For the molecule B5, the “EC50 mRXFP1 (M), cAMP assay” value worked out at 9.1e-12 M.

Turning to B6, the “EC50 mRXFP1 (M), cAMP assay” value stood at 3.28e-11 M.

On to B7, for which the “EC50 mRXFP1 (M), cAMP assay” value is 2.79e-11 M.

Turning to B8, the “EC50 mRXFP1 (M), cAMP assay” value is 2.37e-12 M.

Another experiment addresses T3, human RXFP2 (human, UniProt Q8WXD0 1-754). Briefly: cell-based or functional assay.
Consider B1, for which the “EC50 hRXFP2 (M), cAMP assay” value came to 1.75e-09 M.

For B2, the “EC50 hRXFP2 (M), cAMP assay” value was determined as 3.24e-08 M.

For the molecule B3, the “EC50 hRXFP2 (M), cAMP assay” value stood at 4.26e-08 M.

As to B4, the “EC50 hRXFP2 (M), cAMP assay” value was over 1.09e-07 M.

On to B5, for which the “EC50 hRXFP2 (M), cAMP assay” value was found to be 3.42e-08 M.

As for B7, the “EC50 hRXFP2 (M), cAMP assay” value is 3.54e-08 M.

Consider B8, for which the “EC50 hRXFP2 (M), cAMP assay” value amounted to 1.78e-12 M.

The target in a further experiment is T1, human RXFP1. Briefly: cell-based or functional assay. The source holds these as a separate data set.
B1: the “EC50 hRXFP1 (M), cAMP assay” value was 1.15e-12 M.

As to B5, the “EC50 hRXFP1 (M), cAMP assay” value came out at 5.81e-11 M.

Take B8: the “EC50 hRXFP1 (M), cAMP assay” value came to 4.47e-12 M.

The next experiment concerns the target T2, mouse RXFP1. The experiment can be described thus: cell-based or functional assay. This is another data set of the same source.
In the case of B1, the “EC50 mRXFP1 (M), cAMP assay” value was 7.54e-13 M.

Turning to B5, the “EC50 mRXFP1 (M), cAMP assay” value is 2.24e-11 M.

As for B8, the “EC50 mRXFP1 (M), cAMP assay” value came out at 2.37e-12 M.

The next experiment concerns the target T3, human RXFP2. The experiment can be described thus: cell-based or functional assay. The source holds these as a separate data set.
Take B1: the “EC50 hRXFP2 (M), cAMP assay” value was 1.75e-09 M.

In the case of B5, the “EC50 hRXFP2 (M), cAMP assay” value was determined as 4.4e-08 M.

B8: the “EC50 hRXFP2 (M), cAMP assay” value is 1.78e-12 M.

The target of a further experiment is T1, human RXFP1. Briefly: cell-based or functional assay. This is another data set of the same source.
For B1, the “EC50 hRXFP1 (M), cAMP assay” value came to 1.15e-12 M.

In the case of B2, the “EC50 hRXFP1 (M), cAMP assay” value stood at 3.32e-11 M.

For the molecule B5, the “EC50 hRXFP1 (M), cAMP assay” value turned out to be 5.81e-11 M.

Consider B8, for which the “EC50 hRXFP1 (M), cAMP assay” value is 4.47e-12 M.

The next experiment deals with T2, mouse RXFP1. The experiment can be described thus: cell-based or functional assay. This is another data set of the same source.
Regarding B1, the “EC50 mRXFP1 (M), cAMP assay” value came to 7.54e-13 M.

As to B2, the “EC50 mRXFP1 (M), cAMP assay” value is 1.36e-11 M.

Turning to B5, the “EC50 mRXFP1 (M), cAMP assay” value was 2.24e-11 M.

As to B8, the “EC50 mRXFP1 (M), cAMP assay” value turned out to be 2.37e-12 M.

Another experiment addresses T3, human RXFP2. The experiment can be described thus: cell-based or functional assay. This is another data set of the same source.
As to B1, the “EC50 hRXFP2 (M), cAMP assay” value came out at 1.75e-09 M.

Turning to B2, the “EC50 hRXFP2 (M), cAMP assay” value turned out to be 4.2e-08 M.

Regarding B5, the “EC50 hRXFP2 (M), cAMP assay” value amounted to 4.4e-08 M.

As to B8, the “EC50 hRXFP2 (M), cAMP assay” value was determined as 1.78e-12 M.
